Experimental data reported in patent publication US20240270857A1 (CHIA TAI TIANQING PHARMACEUTICAL GROUP, published 2024).

T1: human IL-36R overexpressed on 293T-hIL36R-NFκB cells (human, UniProt Q9HB29 20-575)
T1 construct: Entry includes the signal peptide; also called IL1RL2; IL-1Rrp2
T1 sequence: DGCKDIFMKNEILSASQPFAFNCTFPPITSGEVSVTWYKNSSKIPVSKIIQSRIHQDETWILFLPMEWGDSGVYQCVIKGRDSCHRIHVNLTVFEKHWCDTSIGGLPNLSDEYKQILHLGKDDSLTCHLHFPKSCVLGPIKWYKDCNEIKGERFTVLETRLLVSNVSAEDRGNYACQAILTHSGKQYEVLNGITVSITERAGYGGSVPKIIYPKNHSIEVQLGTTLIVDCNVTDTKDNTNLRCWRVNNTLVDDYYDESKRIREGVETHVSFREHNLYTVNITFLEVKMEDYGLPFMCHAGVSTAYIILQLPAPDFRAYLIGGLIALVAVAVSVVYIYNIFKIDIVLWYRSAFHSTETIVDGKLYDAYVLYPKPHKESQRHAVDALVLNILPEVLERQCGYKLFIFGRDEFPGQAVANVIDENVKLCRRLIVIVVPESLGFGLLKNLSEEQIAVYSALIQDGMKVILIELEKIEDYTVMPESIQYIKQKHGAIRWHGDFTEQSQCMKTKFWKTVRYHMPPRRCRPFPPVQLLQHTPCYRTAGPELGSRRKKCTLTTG

T2: IL-36R naturally expressed on OVCAR8 cells and on normal human epidermal keratinocytes (NHK cells) (human, UniProt Q9HB29 20-575)
T2 sequence (looked up): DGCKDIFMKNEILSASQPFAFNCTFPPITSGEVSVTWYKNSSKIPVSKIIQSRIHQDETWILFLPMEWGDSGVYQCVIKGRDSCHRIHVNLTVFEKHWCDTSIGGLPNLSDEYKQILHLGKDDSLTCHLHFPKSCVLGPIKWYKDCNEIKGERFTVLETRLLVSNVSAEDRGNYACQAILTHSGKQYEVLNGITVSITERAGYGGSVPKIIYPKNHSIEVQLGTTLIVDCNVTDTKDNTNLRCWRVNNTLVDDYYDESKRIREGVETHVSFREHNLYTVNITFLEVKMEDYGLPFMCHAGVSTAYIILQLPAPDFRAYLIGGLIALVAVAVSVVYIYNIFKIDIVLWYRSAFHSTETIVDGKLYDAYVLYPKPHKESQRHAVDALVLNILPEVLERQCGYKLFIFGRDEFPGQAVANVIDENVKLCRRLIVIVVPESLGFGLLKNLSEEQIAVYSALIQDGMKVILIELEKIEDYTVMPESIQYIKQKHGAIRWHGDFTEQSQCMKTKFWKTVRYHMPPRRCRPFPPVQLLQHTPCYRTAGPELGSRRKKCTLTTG

T3: Human IL-1Rrp2/IL-1R6 protein, His Tag (ACROBiosystems, IL2-H52H6) (human, UniProt Q9HB29 20-335)
T3 construct: Bought protein; the soluble protein is likely only the extracellular part; also called hIL-36R; human IL36R antigen; not shown: His tag
T3 sequence: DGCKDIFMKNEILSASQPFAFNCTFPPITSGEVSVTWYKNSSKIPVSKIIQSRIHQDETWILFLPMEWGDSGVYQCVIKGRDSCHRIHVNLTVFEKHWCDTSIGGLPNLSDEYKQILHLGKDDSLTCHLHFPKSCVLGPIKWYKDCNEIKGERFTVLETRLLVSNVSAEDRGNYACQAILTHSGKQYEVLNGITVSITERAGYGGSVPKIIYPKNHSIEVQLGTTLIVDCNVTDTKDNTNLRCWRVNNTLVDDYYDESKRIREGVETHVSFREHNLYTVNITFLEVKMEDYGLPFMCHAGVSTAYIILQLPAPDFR


How the values were obtained:
[1] = target: T1, human IL-36R overexpressed on …; test: FACS on 293T-hIL36R-NFκB cells, ratio of MFI to background MFI
Procedure: After the cells was washed with PBS, the cells were resuspended with 100 μL of PBS and then the fluorescence signal was detected using a flow cytometer (BD, Accuri C6). […] The ratio was the ratio of mean fluorescence intensity (MFI) of the experimental group/the background MFI, and the resulting data were analyzed using GraphPad Prism.
Affinity, binding and blocking assays for humanized antibodies hz72C1-1.1, hz72C1-1.2, hz72C1-1.3, hz72C1-2.1, hz72C1-2.2 and hz72C1-2.3 as well as hz84C4-1.1, hz84C4-1.2, hz84C4-1.3, hz84C4-1.4, hz84C4-1.5, hz84C4-2.1, hz84C4-2.2, hz84C4-2.3, hz84C4-2.4 and hz84C4-2.5 were performed according to the methods of Example 4, Example 5. Example 6, Example 7 and Example 8.

[2] = target: T1, human IL-36R overexpressed on …; test: cell-based or functional assay
[3] = target: T2, IL-36R naturally expressed on OVCAR8 …; test: cell-based or functional assay
[4] = target: T3, Human IL-1Rrp2/IL-1R6 protein, His Tag …; test: ELISA, plate coated with human IL-1Rrp2/IL-1R6 His Tag, HRP-protein A/G, OD450
Procedure: The binding activity of anti-IL-36R antibodies to IL-36R was analyzed by ELISA using human IL-1Rrp2/IL-1R6 protein, His Tag (ACROBiosystems, IL2-H52H6) and CynoIL36R-ECD mFc (for detection of chimeric and humanized antibodies), and hIL36R-ECD hFc and CynoIL36R-ECD hFc protein (for detection of hybridoma antibodies) as antigens. A 96-well plate (Costar, 9018) was coated with 2 μg/mL antigen at 100 μL/well and incubated overnight at 4° C. After the 96-well plate was washed with a washing buffer (PBS containing 0.05% v/v Tween 20), a blocking buffer (PBS containing 2% bovine serum albumin) was added for blocking at 37° C. for 2 h. After the 96-well plate was washed with the washing buffer, 100 μL of the gradient diluted anti-IL-36R antibody of the present disclosure or the reference antibody BI655130 (the initial concentration of the antibody was 66 nM, 4-fold gradient dilution) was added to each well, and the plate was incubated at room temperature for 1 h. After the 96-well plate was washed with the washing buffer, 100 μL of horseradish peroxidase-conjugated recombinant protein A/G (TheroScientific, 32490) was added to each well, and the plate was incubated at room temperature for 1 h. After the 96-well plate was washed with the washing buffer, 100 μL of a TMB solution (Thermo, 00-4201-56) was added to each well, and the plate was incubated at room temperature for 2 min. Finally, 100 μL of a stop solution (2 N H₂SO₄) was added to each well to stop the reaction. Absorbance was read at 450 nm using a microplate reader (PE, Envision), the resulting data was analyzed using GraphPad Prism, and EC₅₀ was calculated. Binding EC₅₀ of the chimeric anti-IL-36R antibodies to hIL-36R in an ELISA assay is shown in FIG. 1. and binding EC₅₀ of the chimeric anti-IL-36R antibodies to CynoIL-36R in an ELISA assay is shown in FIG. 2. The binding of BI655130 is shown as a control, and the binding of IgG4 is shown as a negative control.

Row | Binder | EC50 [1] [nM] | IC50 (M); hIL36α; NFκB-luciferase [2] [M] | IC50 (M); hIL36αβγ; NFκB-luciferase [2] [M] | IC50 (M); hIL36β; NFκB-luciferase [2] [M] | IC50 (M); hIL36γ; NFκB-luciferase [2] [M] | Maximum inhibition rate %; hIL36α; NFκB-luciferase [2] [%] | Maximum inhibition rate %; hIL36αβγ; NFκB-luciferase [2] [%] | Maximum inhibition rate %; hIL36β; NFκB-luciferase [2] [%] | Maximum inhibition rate %; hIL36γ; NFκB-luciferase [2] [%] | IC50 (M); hIL36α; IL-8 production [3] [M] | IC50 (M); hIL36αβγ; IL-8 production [3] [M] | IC50 (M); hIL36β; IL-8 production [3] [M] | IC50 (M); hIL36γ; IL-8 production [3] [M] | Maximum inhibition rate %; hIL36α; IL-8 production [3] [%] | Maximum inhibition rate %; hIL36αβγ; IL-8 production [3] [%] | Maximum inhibition rate %; hIL36β; IL-8 production [3] [%] | Maximum inhibition rate %; hIL36γ; IL-8 production [3] [%] | EC50 [4] [nM]
1 | BI655130 (antibody, human IgG1, kappa, L234A L235A, also called Spesolimab) heavy: not shown light: QIVLTQSPGTLSLSPGERATMTCTASSSVSSSYFHWYQQKPGQAPRLWIYRTSRLASGVPDRFSGSGSGTDFTLTISRLEPEDAATYYCHQFHRSPLTFGAGTKLEIKRTVAAPSVFIFPPSDEQLKSGTASVVCLLNNFYPREAKVQWKVDNALQSGNSQESVTEQDSKDSTYSLSSTLTLSKADYEKHKVYACEVTHQGLSSPVTKSFNRGEC | 9.82 | 6.09e-09 | 2.36e-08 | 2.45e-09 | ~1.32e-08 | 84.5 | 81.2 | 86.7 | 79.2 | 6.33e-11 | 7.27e-11 | 3.29e-11 | 2.63e-11 | 101 | 90.7 | 97.1 | 107 | 0.348
2 | hz84C4-2.4 (antibody, human IgG4 S228P, kappa, V domains shown, Humanized, human IgG4 / kappa) VH: QVQLVQSGAEVKKPGASVKVSCKASGYYFTSYWMNWVRQAPGQGLEWMGMIHPYDSETRLAQKFKGRVTMTVDKSTSTVYMELSSLRSEDTAVYYCASSTTAFAYWGQGTLVTVSS VL: DIQMTQSPSSLSASVGDRVTITCRASQDIGNALNWLQQKPGKAPKRLIYATSSLDPGVPSRFSGSRSGTDYTLTISSLQPEDFATYYCLQYASSPYTFGQGTKVEIKR | ~5.26 |  |  |  |  |  |  |  |  | 4.68e-11 | 1.57e-10 | 6.52e-11 | 1.12e-11 | 95 | 95.6 | 92.7 | 101 | 0.453
3 | hz84C4-2.5 (antibody, human IgG4 S228P, kappa, V domains shown, Humanized, human IgG4 / kappa) VH: QVQLVQSGAEVKKPGASVKVSCKVSGYFFTSYWMNWVNQAPGQGLEWMGMIHPYDSETRLAQKFKGRVTMTVDKSTSTVYMELSSLRSEDTAVYYCASSTTAFAYWGQGTLVTVSS VL: DIQMTQSPSSLSASVGDRVTITCRASQDIGNALNWLQQKPGKAPKRLIYATSSLDPGVPSRFSGSRSGTDYTLTISSLQPEDFATYYCLQYASSPYTFGQGTKVEIKR | ~5.04 |  |  |  |  |  |  |  |  | 4.81e-11 | 6.61e-11 | 1.24e-11 | 8.4e-12 | 99.7 | 98.5 | 102 | 103 | 0.497
